# Test results published in the supplement of paper PMC7877785.
# ± gives the uncertainty stated by the source.
# Test: self-splicing fitness, log relative to wild type (ln ratio); higher = more splicing; Tetrahymena group I intron in knt gene, E. coli kanamycin selection, DiMSum; sequences stand for … in CUCUCU…GGAGGGAAAAGUUAUCAGGCAUGCACCUGGUAGCUAGUCUUUAAACCAAUAGAUUGCAUCGGUUUAAAAGGCAAGACCGUCAAAUUGCGGGAAAGGGGUCAACAGCCGUUCAGUACCAAGUCUCAGGGGAAACUUUGAGAUGGCCUUGCAAAGGGUAUGGUAAUAAGCUGACGGACAUGGUCCUAACCACGCAGCCAAGUCCUAAGUCAACAGAUCUUCUGUUGAUAUGGAUGCAGUUCACAGACUAAAUGUCGGUCGGGGAAGAUGUAUUCUUCUCAUAAGAUAUAGUCGGACCUCUCCUUAAUGGGAGCUAGCGGAUGAAGUGAUGCAACACUGGAGCCGCUGGGAACUAAUUUGUAUGCGAAAGUAUAUUGAUUAGUUUUGGAGUACUCGUGGUCG
# In short: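 Fitness was computed with DiMSum as the error-weighted combination of replicate fold changes, kanamycin versus none, each normalised to wild type. The library randomised all eight intron nucleotides of the P1ex region, with the intron placed in the knt kanamycin-resistance gene on pET-22b(+) in E. coli BL21(DE3). Six replicate transformations were grown overnight at 37°C or 30°C on LB agar with or without 25 μg/mL kanamycin, plus 100 μg/mL carbenicillin, 50 μM IPTG and 0.2% rhamnose. Pooled colonies were amplicon-sequenced on an Illumina HiSeq 2500.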
Sequence,self-splicing fitness (ln) (30 °C),self-splicing fitness (ln) (37 °C)
ACUCAGCAAUAUUACGGCGA,-1.41 ± 0.1,-0.93 ± 0.12
GAGAAGCAAUAUUACGGCAG,-3.08 ± 0.41,-1.85 ± 0.3
GGAAAGCAAUAUUACGCCGG,–,-2.24 ± 0.37
CGCAAGCAAUAUUACGAUUG,-2.21 ± 0.056,-1.01 ± 0.07
GCUUAGCAAUAUUACGGCUU,-0.91 ± 0.089,-0.586 ± 0.11
UGGUAGCAAUAUUACGGGCU,-2.27 ± 0.14,-0.926 ± 0.11
CUGCAGCAAUAUUACGGCCC,-2.85 ± 0.36,–
CCGGAGCAAUAUUACGUAUC,–,-2.58 ± 0.29
CGGUAGCAAUAUUACGGUUU,-3.36 ± 0.16,-1.83 ± 0.15
UAUUAGCAAUAUUACGCAGG,-1.43 ± 0.14,-0.962 ± 0.14
AGCAAGCAAUAUUACGUUUU,-2.46 ± 0.077,-1.71 ± 0.09
AGGCAGCAAUAUUACGCAGC,-4.21 ± 0.42,-2.84 ± 0.31
UAGAAGCAAUAUUACGGCAU,-1.96 ± 0.12,-0.323 ± 0.094
UCGGAGCAAUAUUACGGGUG,-3.03 ± 0.24,-2.94 ± 0.2
GCUAAGCAAUAUUACGGAGG,-1.11 ± 0.14,-1.65 ± 0.29
AACAAGCAAUAUUACGAGCU,-0.919 ± 0.056,-0.357 ± 0.073
GCAUAGCAAUAUUACGUCGA,-1.63 ± 0.15,-0.979 ± 0.15
GUAAAGCAAUAUUACGCUCA,-0.138 ± 0.095,0.776 ± 0.14
AACGAGCAAUAUUACGGGCG,-3.07 ± 0.15,-1.11 ± 0.19
UUCGAGCAAUAUUACGUCCG,-3.05 ± 0.24,-1.24 ± 0.28
GGCAAGCAAUAUUACGUAAG,-0.742 ± 0.072,-1 ± 0.1
CUGCAGCAAUAUUACGAGAU,-3.69 ± 0.34,–
GUCAAGCAAUAUUACGCCGC,-2.83 ± 0.28,-2.35 ± 0.46
ACGAAGCAAUAUUACGUGAU,-2.04 ± 0.054,-0.989 ± 0.072
ACGUAGCAAUAUUACGCGAA,-1.46 ± 0.16,-0.935 ± 0.18

Sequence,self-splicing fitness (ln) (30 °C),self-splicing fitness (ln) (37 °C)
ACUAAGCAAUAUUACGCUGC,-2.57 ± 0.15,-2.17 ± 0.14
ACCCAGCAAUAUUACGUUAC,-3.24 ± 0.14,-1.13 ± 0.14
CAAUAGCAAUAUUACGGUAU,-3.15 ± 0.15,-2.42 ± 0.21
GUUUAGCAAUAUUACGUGCG,-0.649 ± 0.11,-0.5 ± 0.11
AGUCAGCAAUAUUACGUCCU,-0.258 ± 0.1,-0.279 ± 0.15
AGACAGCAAUAUUACGUACU,-0.834 ± 0.062,-0.36 ± 0.086
UUUUAGCAAUAUUACGUAGG,-1.99 ± 0.11,-0.229 ± 0.13
CUAGAGCAAUAUUACGUAUA,-3.08 ± 0.49,–
CCAGAGCAAUAUUACGCAAC,-4.18 ± 0.24,-2.94 ± 0.12
CGACAGCAAUAUUACGAAUA,-2.16 ± 0.18,-3.12 ± 0.3
AGCAAGCAAUAUUACGGUAC,-4.18 ± 0.2,-2.16 ± 0.16
UGGUAGCAAUAUUACGCCAG,-1.16 ± 0.28,-0.742 ± 0.3
GUUAAGCAAUAUUACGACUC,0.708 ± 0.15,0.214 ± 0.17
CAUGAGCAAUAUUACGGUCG,-0.34 ± 0.091,0.0674 ± 0.1
ACGGAGCAAUAUUACGCCAG,-4.18 ± 0.43,-1.11 ± 0.39
GAAAAGCAAUAUUACGCGGU,-3.4 ± 0.21,-1.21 ± 0.16
CAUGAGCAAUAUUACGCGCA,-2.89 ± 0.19,-1.31 ± 0.16
AACUAGCAAUAUUACGCUCU,-0.509 ± 0.12,0.627 ± 0.11
CCAAAGCAAUAUUACGCAGA,-3.75 ± 0.19,-2.65 ± 0.18
CUUGAGCAAUAUUACGGACG,-0.339 ± 0.15,0.256 ± 0.26
AGGGAGCAAUAUUACGGUAU,–,-0.384 ± 0.39
GGUGAGCAAUAUUACGGAAG,–,-2.66 ± 0.41
UCAGAGCAAUAUUACGUCUC,-2.81 ± 0.34,–
AUAUAGCAAUAUUACGACAC,-1.5 ± 0.23,-0.312 ± 0.29
ACCGAGCAAUAUUACGUGUU,-3.76 ± 0.19,-2.65 ± 0.24

Sequence,self-splicing fitness (ln) (30 °C),self-splicing fitness (ln) (37 °C)
AAUCAGCAAUAUUACGGAUU,-2.89 ± 0.15,-2.74 ± 0.16
UUCGAGCAAUAUUACGUGUC,-3.11 ± 0.23,-2.77 ± 0.34
GUCGAGCAAUAUUACGGUAC,-1.98 ± 0.11,-1.91 ± 0.16
GAUCAGCAAUAUUACGGCCG,-0.635 ± 0.13,-0.245 ± 0.14
UAUCAGCAAUAUUACGGAAA,-0.825 ± 0.11,-0.253 ± 0.12
UAGGAGCAAUAUUACGUGGC,–,-0.624 ± 0.36
AGGGAGCAAUAUUACGUUUU,-2.81 ± 0.21,-2.22 ± 0.27
GAGCAGCAAUAUUACGAAUC,-2.08 ± 0.07,-1.22 ± 0.083
GGCAAGCAAUAUUACGCGCU,-3.35 ± 0.42,-3.25 ± 0.43
UCUGAGCAAUAUUACGCAUG,-2.33 ± 0.18,-1.65 ± 0.17
UCAUAGCAAUAUUACGGGCC,–,-3.67 ± 0.46
GAACAGCAAUAUUACGACGA,-0.494 ± 0.085,0.265 ± 0.097
CUGCAGCAAUAUUACGUUAC,-4.46 ± 0.28,-3.08 ± 0.24
CGUAAGCAAUAUUACGUCAU,-3.23 ± 0.17,-2.38 ± 0.17
ACGCAGCAAUAUUACGCGCG,-2.59 ± 0.18,-2.07 ± 0.2
GAAUAGCAAUAUUACGAGAU,-3.86 ± 0.23,-1.22 ± 0.14
GUGAAGCAAUAUUACGAAGA,-0.478 ± 0.086,-1.11 ± 0.14
GGGAAGCAAUAUUACGGUGC,-1.17 ± 0.17,-0.397 ± 0.22
AGUAAGCAAUAUUACGAUAG,-3.75 ± 0.33,-2.86 ± 0.31
UUCUAGCAAUAUUACGAAAU,-2.85 ± 0.28,-1.75 ± 0.32
GCAGAGCAAUAUUACGCCUG,–,-1.33 ± 0.47
AAAAAGCAAUAUUACGGCUG,-0.648 ± 0.085,-0.345 ± 0.13
UCCUAGCAAUAUUACGCGUC,-3.53 ± 0.35,-3.53 ± 0.42
GAUCAGCAAUAUUACGCUCU,-1.3 ± 0.12,-0.735 ± 0.15
CUUAAGCAAUAUUACGGGCG,-0.789 ± 0.13,-0.48 ± 0.14

Sequence,self-splicing fitness (ln) (30 °C),self-splicing fitness (ln) (37 °C)
GCAUAGCAAUAUUACGCCCA,-2.41 ± 0.19,-0.965 ± 0.16
AUAGAGCAAUAUUACGAAGG,–,-1.24 ± 0.39
UUAAAGCAAUAUUACGAUGC,-2.82 ± 0.11,-2.2 ± 0.083
GGCAAGCAAUAUUACGAUAA,-1.23 ± 0.11,0.298 ± 0.13
CUAAAGCAAUAUUACGUUAU,-4.11 ± 0.21,-3.34 ± 0.26
UUUAAGCAAUAUUACGCGAC,-2.4 ± 0.18,-2.75 ± 0.22
UCACAGCAAUAUUACGCUGG,-3.9 ± 0.26,-2.94 ± 0.22
AGAGAGCAAUAUUACGAAAG,-4.41 ± 0.27,-2.42 ± 0.22
AGUUAGCAAUAUUACGCUCA,-1.23 ± 0.16,-0.21 ± 0.15
UUAAAGCAAUAUUACGCGUG,-0.256 ± 0.056,-0.26 ± 0.068
AUCCAGCAAUAUUACGAGCC,-3.17 ± 0.25,-3.32 ± 0.33
AAUGAGCAAUAUUACGUAGG,-3.19 ± 0.15,-2.6 ± 0.24
GCAAAGCAAUAUUACGCAUC,-1.98 ± 0.16,-1.4 ± 0.17
CUUCAGCAAUAUUACGCCUC,–,-3.49 ± 0.32
CGCUAGCAAUAUUACGGUCA,-0.0527 ± 0.076,0.137 ± 0.079
GUGAAGCAAUAUUACGUGAG,-1.26 ± 0.076,-0.555 ± 0.097
AGAAAGCAAUAUUACGGGCA,-0.6 ± 0.14,-0.0746 ± 0.12
UGGAAGCAAUAUUACGGCGA,-0.779 ± 0.12,-0.28 ± 0.16
CUGAAGCAAUAUUACGUCGG,-3.11 ± 0.18,-1.14 ± 0.16
AUUCAGCAAUAUUACGAUCC,-0.321 ± 0.19,-0.287 ± 0.25
UGGUAGCAAUAUUACGCUGA,-1.07 ± 0.15,-0.679 ± 0.11
UUGGAGCAAUAUUACGGUGG,-3.06 ± 0.16,-3.08 ± 0.23
UGAAAGCAAUAUUACGGUCG,0.0681 ± 0.051,0.137 ± 0.067
GUCUAGCAAUAUUACGUCCC,0.0985 ± 0.14,-0.0539 ± 0.14
